Results on one molecule are retold here after patent US20070014736A1, “Methods of delivering corticotroph-derived glycoprotein hormone” (priority 2005, published 2007).

For one data set, the system named is thymus. More on the design: species or system mice. The settings on record: mouse, in vivo. The text has this: Since the receptor for CGH, TSH-R, is expressed by the adrenal glands, there was concern that the anti-inflammatory effects observed might be an indirect effect of increasing endogenous corticosteroid production in CGH-treated mice. One well-established side effect of increasing either exogenous or endogenous corticosteroid levels is substantial atrophy of the thymus, as the developing T cells are induced to undergo apoptosis. Therefore, the thymuses of the CGH and Dex-treated mice in the DTH experiments were analyzed. […] Thus, CGH seems to be mediating its anti-inflammatory effects in a manner distinct from that of exgenous glucocorticoids like Dex.

The subject of data set [1] is LPS-induced mild endotoxemia mouse model. Description: LPS-induced mild endotoxemia mouse model, serum cytokines. It counts as in vivo, mice. As for the experimental part:
An in vivo experiment was designed to examine the effect of CGH in a mouse model of LPS-induced mild endotoxemia. This model mimics acute endotoxemia/sepsis by challenging mice with a low, non-lethal dose of bacterial endotoxin (lipopolysaccharide, LPS). Serum is collected at various timepoints (1-8 hours) after intraperitoneal LPS injection and analyzed for altered expression of a wide variety of pro- and anti-inflammatory cytokines and acute phase proteins that mediate the inflammatory response. The model provides a means to assess the potential anti-inflammatory effects of therapeutic candidates during a robust inflammatory response. To initially assess the model, we measured proinflammatory cytokines in a pilot experiment to collect reference data for the model.
C57B1/6 mice (Charles River Laboratories; 5 mice/group) were treated i.p. with PBS, 0.2 mg/kg CGH in PBS, or 2 mg/kg CGH in PBS 1 hour prior to LPS challenge. The mice were then challenged with 25 ug of LPS i.p. and bled at 1 hour and 4 hours after LPS injection. Serum was analyzed for TNF[…] (1 hour) and IL-6 (4 hours) levels by ELISA.
To determine if CGH would potentiate the effect of a sub-maximal dose of glucocorticoid, groups of 10 C57B1/6 mice each were treated i.p. with PBS, 0.15 or 1.5 mg/kg Dex, 2 mg/kg CGH, or a combination of CGH and low or high doses of Dex, 1 hour prior to injection of 25 ug LPS i.p. As shown in TABLE 3 (Expt #2), either 2 mg/kg CGH or 1.5 mg/kg Dex treatment alone (1 hour prior to LPS) caused a significant drop in serum TNFα levels at 1 hour, as observed in previous experiments. The effects of CGH administered in conjunction with Dex on inhibition of TNFα production were greater than either dose of Dex alone.

The subject of data set [2] is Delayed Type Hypersensitivity (DTH) reaction. Description: Delayed Type Hypersensitivity (DTH), change in ear thickness. Format: in vivo, mice.
Data set [3] concerns differentiated 3T3 L1 adipocytes. Description: CRE-luciferase reporter assay in differentiated 3T3 L1 adipocytes. It counts as cell-based, murine. From the text: (§1) Differentiated murine 3T3 L1 adipocytes and primary human adipocytes were used to study signal transduction of CGH. 3T3 L1 fibroblasts were differentiated into adipocytes and the cells were transduced with recombinant adenovirus containing a reporter construct, a firefly luciferase gene under the control of cAMP response element (CRE) enhancer sequences. This assay system detects cAMP-mediated gene induction downstream of activation of Gs-coupled G-protein coupled receptors (GPCR's). […] In a separate experiment, undifferentiated 3T3 L1 fibroblasts were transduced with the recombinant adenovirus. […] In another experiment, human primary adipocytes were also transduced with the recombinant adenovirus containing a reporter construct. Treatment of the human adipocytes with isoproterenol produced a 17-fold induction of luciferase expression.
(§2) Cells were cultured at 37° C. in an 8% CO2 humidified incubator. Cells were seeded to collagen-coated 96-well plates (Becton Dickinson, cat. #356407) at a density of 5,000 cells per well. […] Luciferase activity was measured on a microplate luminometer (PerkinElmer Life Sciences, Inc., model LB 96V2R) following automated injection of 40 μl of luciferase assay substrate into each well. […]

In data set [4] the test system is undifferentiated 3T3 L1 fibroblasts. Description: CRE-luciferase reporter assay in undifferentiated 3T3 L1 fibroblasts. Format: cell-based, murine.
Source text: as §1, §2

Setting [5] is: Expt 1, 0.2 mg/kg CGH i.p. 1 hr prior to LPS.
Setting [6] is: Expt 1, 2 mg/kg CGH i.p. 1 hr prior to LPS.
The mark [7] stands for this setting: Expt 1, 0.2 mg/kg CGH i.p. at challenge (d7), 24 h.
Setting [8] is: Expt 1, 2.0 mg/kg CGH i.p. at challenge (d7), 24 h.
Setting [9] is: Expt 2, 0.2 mg/kg CGH i.p. at challenge (d7).
Where [10] appears, read: Expt 2, 2.0 mg/kg CGH i.p. at challenge (d7).
[11] abbreviates: Expt 3, 0.2 mg/kg CGH i.p. at sensitization (d0-4).
The mark [12] stands for this setting: Expt 3, 2.0 mg/kg CGH i.p. at sensitization (d0-4).

B1: CGH: heterodimeric protein hormone comprised of alpha subunit GPHA2 and beta subunit GPHB5, recombinantly produced in CHO cells (protein)
chain 1: QEAVIPGCHLHPFNVTVRSDRQGTCQGSHVAQACVGHCESSAFPSRYSVLVASGYRHNITSVSQCCTISGLKKVKVQLQCVGSRREELEIFTARACQCDMCRLSRY
chain 2: ASSGNLRTFVGCAVREFTFLAKKPGCRGLRITTDACWGRCETWEKPILEPPYIEAHHRVCTYNETKQVTVKLPNCAPGVDPFYTYPVAIRCDCGACSTATTECETI
In the case of B1, the “relative proportion of each thymocyte subset vs PBS-treated group” value in the data set with thymus is “not significantly different”. Further, in data set [1] (2 mg/kg CGH, 1 hour time point, Expt 1), the “reduction of TNFα induction” value is on record as “about 60%”. Moreover, in data set [1] (2 mg/kg CGH, 4 hour time point, Expt 1), the “increase of serum IL-6 levels” value was “about 70%”. Also, the “IL-6, 4 hours” value in data set [1] (setting [5]) worked out at 49.7 ± 3.1 ng/mL; in data set [1] (setting [6]) it was 71.1 ± 12.9 ng/mL; in data set [1] (Expt 2, 2 mg/kg CGH) it was 57.1 ± 16.2 ng/mL. Further, the “TNFα, 1 hour” value in data set [1] (setting [5]) was 3916 ± 1057 pg/mL; in data set [1] (setting [6]), 2290 ± 530 pg/mL; in data set [1] (Expt 2, 2 mg/kg CGH), 2274 ± 524 pg/mL. Moreover, the “Change in ear thickness, left ear (PBS)” value is on record as 0.17 +/− 0.95 ×10^−3 inch in data set [2] (setting [7]); 0.21 +/− 0.34 ×10^−3 inch in data set [2] (setting [8]); 0.65 +/− 0.63 ×10^−3 inch in data set [2] (setting [9]); 0.67 +/− 1.05 ×10^−3 inch in data set [2] (setting [10]); 1.31 +/− 0.42 ×10^−3 inch in data set [2] (setting [11]); 1.11 +/− 0.49 ×10^−3 inch in data set [2] (setting [12]). Moreover, the “Change in ear thickness, right ear (OVA)” value is given as 3.48 +/− 0.79 ×10^−3 inch in data set [2] (setting [7]); 2.48 +/− 1.05 ×10^−3 inch in data set [2] (setting [8]); 4.41 +/− 0.95 ×10^−3 inch in data set [2] (setting [9]); 3.92 +/− 1.00 ×10^−3 inch in data set [2] (setting [10]); 4.06 +/− 0.73 ×10^−3 inch in data set [2] (setting [11]); 4.57 +/− 1.58 ×10^−3 inch in data set [2] (setting [12]). The “induction of luciferase expression” value in data set [3] worked out at 27 fold. For the same molecule, the reporter gene induction result in data set [4] is “did not result in an increase in reporter gene induction”.
